Test results as given in paper PMC7617061.

Target: U1-C zinc finger (UniProt P09234)
Assay: NMR titration
Conditions: pseudouridine at U1 strand positions 5 and 6

Sequence of UniProt P09234 (P09234 1-61): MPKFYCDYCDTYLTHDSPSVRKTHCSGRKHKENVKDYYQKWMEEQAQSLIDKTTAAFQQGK

AUACUUACCUG / GGAGUAAGUCU [U1 snRNA 5'-end / SMN2 E7 5'-SS RNA duplex]
binding signal (fold affinity increase vs no SMN-C5): 3
